From the nanobody polyreactivity screen of Harvey et al. (2022)

Assay: yeast display, Sf9 membrane polyspecificity reagent, FACS + sequencing; frameworks hold sequencing errors
How it was run: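 After 36–48 hours of galactose induction, yeast (Saccharomyces cerevisiae BJ5465) displaying a synthetic nanobody library were stained at 4 °C for 1 hour with 10% biotinylated, detergent-solubilized Sf9 membrane reagent. Streptavidin microbeads enriched the stained cells before FACS sorting into low and high (top ~1%) gates on anti-HA and streptavidin fluorescence. Each clone's polyreactivity label reflects its gate of origin.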

Sequence	polyreactivity (PSR sort gate)
QVQLVESGGGLVQAGGSLRLSCAASGRTFRLYAMGWHRQAPGKERELVAAITRGGRTNYADSVKGRFTISRDNAKNTVYLQMNSLKPEDTAVYYCAARYVERHTDYYYWGQGTQVTVSS	low polyreactivity
QVQLVESGGGLVQAGGSLRLSCAASGSTFAYYTRGWYRQAPGKERELVAAITSGGRTSYADSVKGRFTISRDNAKNSVYLQMNSLKPEDTAVYYCAKGRKPGYYYWGQGTQVTVSS	high polyreactivity
QVQLVESGGGLVQAGGSLRLSCAASGSIFGSYAMGWYRQAPGKERELVAAITSGGSTYADSVKGPFTISRDNPNKTVYLQMNSQKPDDTAVYYSNAKFYHSTSTLVQSEYDYWGQGTQVSVSS	low polyreactivity
QVQHVESGGGLVQAGGSLRLSCAASGGTFSYNTMGWSRQAPGKERELVAVITFSGGSTYYADSVKGRFTISRDNAKNTVYLQMNSLKPEDTAVYYCNARSYPRWLRYDYWGQGTQVTVSS	low polyreactivity
QVQLVESGGGLVQAGGSLRLSCAASGRTFPGYAMGWYRQAPGKERELVATITFSDGSTYYADSVKGRFTISRDNAKNSVYLQMNSLKPEDTAVYYCNARRSYFLRYGVNYWGQGTQVTVSS	low polyreactivity
QVQLVESGGGLVQAGGSLRLSCAASGGIFAIYAMGWYRQAPGKEREFVATISWRGGSTYYADSVKGRFTISRDNAKNTVYLQMNSLKPEDTAVYYCAAPHFSYSGGTHDYWGQGTQVTVSS	high polyreactivity
QVQLVESGGGLVQAGGSLRLSCASSGFTFTSYAMGWYRQAPGKERELVAAISSSGGSTYYADSVKGRFTISRDNAKNTVYLQMNSLKPEDTAVYYCAAEYGYGEMDSWGQGTQVTVSS	high polyreactivity
QVQLVESWGGLVQAGGSLRLSCAASGLTFETYVMGRYRQAPGKEREFVAAISSSGRTYYADSVKGRFTISRDNAKNTVYLQMNSLKPEDTAFYYCAARGREFGYWGQGTQVTVSS	high polyreactivity
QVQLVESGGGLVQAGGSLRLSCAASGSIFVDYAMGWYRPAPGNERELVADITSDGGSTDYADSVKGRFTISRDYAKNTVYLQMHSLNPEDTAVYDCAALKTQVLGVVEYGYDYWGQGTQVTVSS	high polyreactivity
QVQLVESGGGLVQAGGSLRLSCAASGSTFAVNAMGWYRQAPGKERELVAAITSGGNTYADSVKGRFTISRDNAKNTVYLQMNSLKPEDTAVYYCAAALTEVVYWIYDYWGQGTQVTVSS	low polyreactivity
QVQLVGSGGGLVQAGGSLRLSCAASGRIFRYNAMGWYRQAPGKEREFVATISWRGGNTYYADSVKGRFTISRDNAKNTVYLQMNSLKPEDTAVYYCATRRLYSKSWYYYWGQGTQVTVSS	high polyreactivity
QVQLVESGGGLVQAGGSLRLSCAASGRTIGVYALGWSRQAPGKERELVAALTTSGDSTYYADSVKGRFTISRDNAKNTDYLQMNSLKPEDTAVYYCAARSYRKPRHVSVTYYYWGQGTQVTVSS	low polyreactivity
QVLLVESCGGLVQAGGSLRLSCAASGRIFPLYAMGWYRQAPGKERELVAAISSGGTTYYADSVKGRFTISRDNAKNTVYLQMNSLKPEDTAVYYCNVEYVISWWMYDYWGQGTQVTVSS	low polyreactivity
QVQLVESGGGLVQAGGSLRLSCAASGFTFRRNAMGWYRQAPGTERELVAAINVRDGSTYYADSVKGRFTISRDNAKNTVYVQMNSLKPEDTAVYYCAAEFFQGYYWYYYWGQGTQVTVSS	high polyreactivity
QVQLVESGGGLVQAGGSLRLSCAASGNIFDRYAMGWYRQAPGKERELVAGITWSGGSTYYADSVKGRFTISRDNAKNTVYLQMNSLKPEDTAVYYCGQANYYWGQGSQVTVSS	low polyreactivity
QVQLVESGGGLVQAGGSLRLSCAPSGSIFYSYAMVWYRQAPGKERELVASISRGGTTYYADSVKGRFTISRDNAKNTVYLQMNSLKPEDTAVYYCAAELSEWTNGFDYWGQGTQVTVSS	high polyreactivity
QVQLVESGGGLVQAGGSLRLSCAASVRTMGPYTMGWYRPAPGKERELVAVISSRTGLTYYADSVKGRFTISRDNAKITFYLHMNSLKPEDTAVYYCNAGGRYHAPSGDYWGQGTQVTVSS	low polyreactivity
QVQLEESGGGLVQAGGSLRLSCAASGSIFGYYAMGWYRQAPGKERELVAAITTGGSTSYADSVKGRFTISRDNAKNTVYLQMNSLKPEDTAVYYCNARFKRLFGRADDYWGQGTQVTVSS	low polyreactivity
QVQLVESGGGLVQAGGSLRLSCAASGRILLRNVMGWYRQAPGKERELVAVITRTGITYYADSVKGRFTISRDNAKNTVYLQMNSLKPEDTAVYYCAAGLPKYEHDYWGQGTQVNVSS	low polyreactivity
QVQLVESGGGLVQAGGSLRLSCAASGFTFRRYAMGWYRQAPGKERELVAAINKSGGSTYYADSVKGRFTISRDNAKNTVYLQMNSLKPEDTAVYYCAKPLTAYSGFDHWGQGTQVTVSS	high polyreactivity
QVQLVESVGGLVQAGGSLRLTCAASGLILRRYAMGWYRQAPGKEELVAAITSDASTYYADSVKGRFTISRYNAKNTVYLQMNSLKPEDPAVYYCAADTYDNDYYYWGQGTQVTVSS	high polyreactivity
QVQLVESGGGLVQAGGSLRLSCAASGFIFSRYTMGWYRQAPGKERELVAAISRRGGNTYYADSVKGRFTISRDNGKNTVYLLMNSLKPEDTAVYYFAADSSYFKDEYWGQGTQVTVSS	low polyreactivity

Sequence	polyreactivity (PSR sort gate)
QVQLVESGGGLVQAGGSLRLSCAASGSTFRVNVMGLYRQAPGKERELVAAIDSGGSTYYADSVKGRFTISRDNAKNTVYLQMNSLKPEYTAVYYCNSRVDSPSPYDYWGQGTQVTVSS	low polyreactivity
QVQLVESGGGLVQAGGRLRLSCAASGSIFVGNTMGWYRQAPGKERELVAAISRTARTYYADSVKGRFTISRDNAKNTVYLQMNSLKPEDTAVYYCARASTQVKYGYEYWGQGTQVTVSS	high polyreactivity
QVQLVESGGGLVQAGGSLRLSCAASGSTFNAYAMGWYRQAPGKERELVAAITDGDSTNYADSVKGRSTISRDNAKNTVYLQMNSLKPEDTAVYYCAKDSSVGDGDDGWVWFDLYYWGQGTQVTVSS	low polyreactivity
QVQLVESGGGLVQAGGSLRLSCAASGIIFYIYTMGWYRQAPGKERELVAAINRSGFRTYYADSVKGRFTISRDNAKNTVYLQMNSLKPEDTAVYYCAAGTGSRDYYWGQGTQVTVSS	high polyreactivity
QVQLVESGGGLVQAGGSLRLSCAASGFTSGQYAMGWYRQAPGKERELVAAISWSGGSTYYADSVKGRFTISRDNAKNTVYLQMNSLKPEDTAVYYCAAGKTPQKYGGFNYWGQGTQVTVSS	high polyreactivity
QVQLVESGGGLVQAGGSLRLSCAASGFTFYRYAIGWYRQAPGKETQFFASISRSGGSTYYADSVKGRFTISRDNAKNTVYLQMNSLKPEDTEVYYCAKSYTSSPFRIRDYWGQGTQVTVSS	high polyreactivity
QVQLVESGGGLVQAGGSLRLSCAASGRTLVKYAMGRYRPAPGKERELVAALTQRGGITYYADSVKGRFTISRDNAKNTVYLQMNSLKPEDTAVYYCAASLYSYRSPYTFYYWGQGTQVTVSS	high polyreactivity
QVHLVESGGVLVQAGGSLSLSCAASGRTFIRNAMGWYRQAPGKERELVAAINSGGITNYADSVKGRFTISRDNAKNTVYLQMNSLKPEDTAVYYCNARQVLYGLYLRAYPYEYWGQGTQVTVSS	low polyreactivity
QVQLVESGGGLVQAGGSLRLSSASSGFTFSYYAMGWSRPAPGKERELVAAITSDGGRTYYADSVKGRFTISRDNAKNTVYLQMNSLKPEDTAVYYCAARTRYRGIKGYNYWGQGTQVTVSS	high polyreactivity
QVQLVESGGGLVQAGGSLRLSCAASGITLGYYAMGWYRQAPGKERELVAAISYRGGNTYYADSVKGRFTISRDNAKNTVYLQMNSLKPEDTAVYYCNADLGYESGWWSKYDYWGQGNQVTVSS	low polyreactivity
QVQLVESGGGLVQAGGSLRLSCAASGSTFWPYTMGWYRQAPGKERELVAAITLRGGTTYYADSVKGRFTISRDNEKNTVYLQMNSLKPEDTAVYYCAADVAYVEYDYWGQGTQVTVSS	low polyreactivity
QVQLVESGGGLVQAGGSLRLSCAASGFIFQVYAMGWYRQAPGKERELVAGISRTGGSTYYADSVKGRFTISRDNAKNTVYLQMNSLKPEDTAVYYCAKPYWGYYGYFTHNYWGQGTQVTVSS	high polyreactivity
QVQLVESGGGLVQAGGSHRLSCAASGITFYGYARGWYRQAPGKERELVAAISGNGGRTYYADSVKGRFTISRDYAKNTVYLQMNSLKPEDTAVYYCNVKVRSRRTGDRYDYWGQGTQVTVSS	high polyreactivity
QVKLVESGGGLVQSGGSLRLRCAASGSTITGYAMGWYRQAPRKERDLVAAITYTGTSTYYADTVKGRYTISRDNAKNTVYLEMNSLNPEDTAVYYCAARLAWWKTYIRYYYWGKGTQVTVSS	high polyreactivity
QVQLVESGGGLVQAGGSLRLSCAASGGTFSKNAMGWSRQAPGKERELVADIRSGGSTYYADSVKGRFTISRDNAKNTVYLQMNSLKPEDTAVYYCNADGDVNEYDYWGQGTQVTVSS	low polyreactivity
QVQLQESGRGLVQAGGSLRLSCAASGTISQEDWMGWYRQAPGKEREFVAAIGLGSNTNYADSLKGRFTISRDNAKNTVYLQMNSLKPEDTAVYYCAVSVWQYSDHVYRGQGTQVTVSS	low polyreactivity
QVQLVESGGGLVQAGGSLRLSCAASGSTFYRYAIRWYRQAPGKERELVAAISKRGGSTYYADSVKGRFTISRDNAKNTVYLQMNSLKPEDTAVYYCAADPFHYGGGDDYWGQGTQVTVSS	high polyreactivity
QVQLVESGGGLVQAGGSLRLSCAASGRIFWRYAMGWYRQAPGKERELVAAITSGGNTYYADSVKGRFTISRDNAKNTVYLQMNSLKPEDTAVYYCATVFSVQGWYFGMNYWGQGTQVTVSS	low polyreactivity
QVQLVESGGCLVQAGGSLRLSCAASGFIFSTNAMAWYRQARGTERELVAAITGRGTNTYYADSVKGRFTISRDNAKNTVYLQMNSLKPEDTAVYYCAADGGSYSDYDYWGLGTQVTVSS	high polyreactivity
QVQLVESGGGLVQAGGSLRLSCAASGRIFIYNAMGWYRQAPGKERELVAAISVSGGRTYYADSVKGRFTISRDNAKNTVYLQMNSLKPEDTAVYYCNKVRVGSLRGYWGQGTQVTVSS	high polyreactivity
QVQLVESGGGLVQAGGSLRLSCAASGRTFYLYAMGWYRPAPGKERELVAAITWRGGSTYYADSVKGRFTISRDNAKNTVYLQMNSLKPEDTAVYYCAAVTFFYYSAVRYEYYYWGQGTQVTVSS	high polyreactivity
